Measurements from IntAct's records for PubMed 10466729.

B1: Phytochrome B (Arabidopsis thaliana (Mouse-ear cress)), P14713 (parent)
chain: MVSGVGGSGGGRGGGRGGEEEPSSSHTPNNRRGGEQAQSSGTKSLRPRSNTESMSKAIQQYTVDARLHAVFEQSGESGKSFDYSQSLKTTTYGSSVPEQQITAYLSRIQRGGYIQPFGCMIAVDESSFRIIGYSENAREMLGIMPQSVPTLEKPEILAMGTDVRSLFTSSSSILLERAFVAREITLLNPVWIHSKNTGKPFYAILHRIDVGVVIDLEPARTEDPALSIAGAVQSQKLAVRAISQLQALPGGDIKLLCDTVVESVRDLTGYDRVMVYKFHEDEHGEVVAESKRDDLEPYIGLHYPATDIPQASRFLFKQNRVRMIVDCNATPVLVVQDDRLTQSMCLVGSTLRAPHGCHSQYMANMGSIASLAMAVIINGNEDDGSNVASGRSSMRLWGLVVCHHTSSRCIPFPLRYACEFLMQAFGLQLNMELQLALQMSEKRVLRTQTLLCDMLLRDSPAGIVTQSPSIMDLVKCDGAAFLYHGKYYPLGVAPSEVQIKDVVEWLLANHADSTGLSTDSLGDAGYPGAAALGDAVCGMAVAYITKRDFLFWFRSHTAKEIKWGGAKHHPEDKDDGQRMHPRSSFQAFLEVVKSRSQPWETAEMDAIHSLQLILRDSFKESEAAMNSKVVDGVVQPCRDMAGEQGIDELGAVAREMVRLIETATVPIFAVDAGGCINGWNAKIAELTGLSVEEAMGKSLVSDLIYKENEATVNKLLSRALRGDEEKNVEVKLKTFSPELQGKAVFVVVNACSSKDYLNNIVGVCFVGQDVTSQKIVMDKFINIQGDYKAIVHSPNPLIPPIFAADENTCCLEWNMAMEKLTGWSRSEVIGKMIVGEVFGSCCMLKGPDALTKFMIVLHNAIGGQDTDKFPFPFFDRNGKFVQALLTANKRVSLEGKVIGAFCFLQIPSPELQQALAVQRRQDTECFTKAKELAYICQVIKNPLSGMRFANSLLEATDLNEDQKQLLETSVSCEKQISRIVGDMDLESIEDGSFVLKREEFFLGSVINAIVSQAMFLLRDRGLQLIRDIPEEIKSIEVFGDQIRIQQLLAEFLLSIIRYAPSQEWVEIHLSQLSKQMADGFAAIRTEFRMACPGEGLPPELVRDMFHSSRWTSPEGLGLSVCRKILKLMNGEVQYIRESERSYFLIILELPVPRKRPLSTASGSGDMMLMMPY
partner: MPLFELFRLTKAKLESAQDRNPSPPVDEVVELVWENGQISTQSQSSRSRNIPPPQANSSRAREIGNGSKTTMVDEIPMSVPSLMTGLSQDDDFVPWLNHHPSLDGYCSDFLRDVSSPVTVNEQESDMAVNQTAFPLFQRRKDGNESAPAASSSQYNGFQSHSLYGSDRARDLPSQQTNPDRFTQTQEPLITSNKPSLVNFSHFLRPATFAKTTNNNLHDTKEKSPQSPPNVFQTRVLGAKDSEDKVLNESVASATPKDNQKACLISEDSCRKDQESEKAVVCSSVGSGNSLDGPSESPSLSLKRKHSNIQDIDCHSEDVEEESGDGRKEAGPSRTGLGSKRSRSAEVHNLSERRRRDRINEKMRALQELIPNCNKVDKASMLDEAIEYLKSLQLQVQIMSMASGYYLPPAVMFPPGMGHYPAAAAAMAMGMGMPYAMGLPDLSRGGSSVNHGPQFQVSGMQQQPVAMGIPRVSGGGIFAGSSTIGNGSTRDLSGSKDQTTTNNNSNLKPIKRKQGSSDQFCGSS

Variants of: B1
Conditions: with pif3_arath PIF3, O80536

Effect of a mutation on the interaction, decreasing interaction:
A750V
E812K
G767R
